Reference: article PMC11323955
pKd: −log10 of the molar value.

Target: MBP-MlCYC2A (M. lewisii)
Assay: SPR

Row | Substance | pKd
1 | GST-bop-1 (GST-tagged MlBOP with the H39L point mutation) (natural protein) | 6.01
2 | GST-MlBOP (natural protein) | 5.84
